5 molecules from PMC13376213, “Systematic discovery of motif-based interactions of the auxiliary domains of USP family deubiquitinases” (Nature Communications, 2026) can be followed below.

One assay concerns FLAG-USP33. In words: IP-MS of FLAG-USP33 and variants vs empty vector. Format: cell-based, human. How it is done:
For transfection, 1x10^6 HEK293 cells were seeded in 10 cm dishes with DMEM, 10% FBS, 1% L-G (without antibiotic) medium, incubated at 37 °C, with 5 % CO2 for 24 h. Cells were transfected with a transfection mix containing […] of Opti-MEM (Thermo Fisher Scientific), 20 μL of PEI stock (1 mg/mL) and […] of the desired cDNA. For co-transfection, 2.5 μg of DNA of each plasmid was used. The mix was vortexed for 15 s and incubated at room temperature for 15–20 min. The transfection mix was added to the dish and gently mixed. Plates were incubated at 37 °C for 36–48 h before harvesting. For USP33 constructs, 5 μM Bortezomib (proteasome inhibitor) was added 4 hours before harvesting the cells.
FLAG fusion proteins were immunoprecipitated from HEK293 cells transfected with plasmids encoding the protein of interest using the anti-FLAG M2 affinity gel from Sigma-Aldrich. Cell pellets were lysed with 100–200 μL/per dish lysis buffer (Pierce RIPA buffer, 1X protease inhibitor (Roche), 50 unit/μL of Benzonase Nuclease) rotating at 4 °C for 30–45 min. […] The cell lysate was clarified by centrifugation at 17,000 x g, at 4 °C for 12 min, and the supernatant was transferred to a clean, pre-chilled low-binding Eppendorf tube. […] The IP samples were centrifuged at 6500 x g at 4 °C for 30 s. The supernatant containing the unbound proteins was transferred to a clean tube. The resin was washed three times with 500 μL of TBS, centrifuged at 6500 x g at 4 °C for 30 s. The bound FLAG fusion protein was eluted with 100 μL of 150 ng/μL 3X FLAG peptide (Sigma) in TBS and incubated in the cold room for 1 h or overnight. The tube was centrifuged at 6500 x g at 4 °C for 30 s; the eluted proteins were transferred to a clean tube. The eluted proteins were prepared for analysis by western blot or Mass Spectrometry.
Immunoprecipitation (IP) was carried out as described above; four technical replicates of each IP condition were performed, and the empty vector was used as a negative control. The eluted protein was processed following the Strap-micro protocol (Protifi). The IP elution containing 1–100 μg protein was 1:1 mixed with 2X lysis buffer (10% SDS, 100 mM TEAB pH 8.5). […] Samples were vortexed, mixed with 165 μL of 100 mM TEAB in 90% methanol, and passed through an S-Trap micro column at 4000 g for 30 s to trap the proteins. The column was washed with 150 μL of 100 mM TEAB in 90% methanol (at 4,000 x g for 30 seconds) three times. The S-Trap column was centrifuged again and transferred to a clean 2 mL tube for digestion with 20 μL of digestion buffer (1 μg trypsin per 10 μg sample in 50 mM TEAB), at 37 °C overnight in a thermomixer without shaking. The digested peptides were eluted with […] of 50 mM TEAB in water, […] of 0.2 % formic acid in water, and […] of 50 % acetonitrile in water, centrifuging at 4000 x g for 1 min each time. The three elutions were pooled in a low-binding tube, placed on dry ice until frozen, dried in a SpeedVac vacuum (Thermo Scientific), and proceeded with the LCMS analysis.
Eluted peptides were resuspended in water supplemented with 0.015% dodecyl maltoside and 0.1% formic acid and were injected on a Vanquish Neo UHPLC System operating in trap and elute mode coupled to an Orbitrap Astral Mass Spectrometer (Thermo Fisher Scientific). […] Eluted peptides were analyzed using data-independent acquisition mode on the mass spectrometer.
Peptides were searched against the Uniprot Swissprot Human database (released on 02/01/2023) supplemented with the USP20 and USP33 mutants using DiaNN (v1.9.0)[62] operating in library-free mode. Data filtering and statistical analysis were carried out in Python (v3.9.0) using the packages pandas, numpy, sklearn, scipy, rpy2, Plotnine, and Plotly and R (v4.4.3) using the package limma.
Protein groups identified with a single peptide or quantified in fewer than three replicates in at least 1 condition were filtered out. […]

The next assay deals with FLAG-USP20. As to the kind of experiment: IP-MS of FLAG-USP20 and variants vs empty vector. The assay is classed as cell-based, human.
[1] abbreviates: IP-MS, FLAG-USP33-ΔUBP vs EV, comparison bh_2 Sample_Limma_ImpMedInt_USP33_UBP_domain/EV.
Where [2] appears, read: IP-MS, FLAG-USP33-ΔDUSP2 vs EV, comparison bh_2 Sample_Limma_ImpMedInt_USP33_DUSP2_domain/EV.
Setting [3] is: IP-MS, FLAG-USP33 UBP mutant vs EV, comparison USP33_E86K_D90R/EV, Limma.
[4] abbreviates: IP-MS, FLAG-USP20-ΔUBP vs EV, comparison bh_2 Sample_Limma_ImpMedInt_USP20_UBP_domain/EV.
Where [5] appears, read: IP-MS, FLAG-USP20 vs EV, comparison USP20_wt/EV, Limma.
Where [6] appears, read: Table S7b USP20 MS_and_motif, bait USP20.

Description for FLAG-USP20: For transfection, 1x10^6 HEK293 cells were seeded in 10 cm dishes with DMEM, 10% FBS, 1% L-G (without antibiotic) medium, incubated at 37 °C, with 5 % CO2 for 24 h. Cells were transfected with a transfection mix containing 970 mL of Opti-MEM (Thermo Fisher Scientific), 20 μL of PEI stock (1 mg/mL) and 5 mg of the desired cDNA. For co-transfection, 2.5 μg of DNA of each plasmid was used. The mix was vortexed for 15 s and incubated at room temperature for 15–20 min. The transfection mix was added to the dish and gently mixed. Plates were incubated at 37 °C for 36–48 h before harvesting. For USP33 constructs, 5 μM Bortezomib (proteasome inhibitor) was added 4 hours before harvesting the cells.
FLAG fusion proteins were immunoprecipitated from HEK293 cells transfected with plasmids encoding the protein of interest using the anti-FLAG M2 affinity gel from Sigma-Aldrich. […] The cell lysate was clarified by centrifugation at 17,000 x g, at 4 °C for 12 min, and the supernatant was transferred to a clean, pre-chilled low-binding Eppendorf tube. […] The IP samples were centrifuged at 6500 x g at 4 °C for 30 s. The supernatant containing the unbound proteins was transferred to a clean tube. The resin was washed three times with 500 μL of TBS, centrifuged at 6500 x g at 4 °C for 30 s. The bound FLAG fusion protein was eluted with 100 μL of 150 ng/μL 3X FLAG peptide (Sigma) in TBS and incubated in the cold room for 1 h or overnight. The tube was centrifuged at 6500 x g at 4 °C for 30 s; the eluted proteins were transferred to a clean tube. The eluted proteins were prepared for analysis by western blot or Mass Spectrometry.
Immunoprecipitation (IP) was carried out as described above; four technical replicates of each IP condition were performed, and the empty vector was used as a negative control. The eluted protein was processed following the Strap-micro protocol (Protifi). The IP elution containing 1–100 μg protein was 1:1 mixed with 2X lysis buffer (10% SDS, 100 mM TEAB pH 8.5). […] Samples were vortexed, mixed with 165 μL of 100 mM TEAB in 90% methanol, and passed through an S-Trap micro column at 4000 g for 30 s to trap the proteins. The column was washed with 150 μL of 100 mM TEAB in 90% methanol (at 4,000 x g for 30 seconds) three times. The S-Trap column was centrifuged again and transferred to a clean 2 mL tube for digestion with 20 μL of digestion buffer (1 μg trypsin per 10 μg sample in 50 mM TEAB), at 37 °C overnight in a thermomixer without shaking. The digested peptides were eluted with 40 mL of 50 mM TEAB in water, 40 mL of 0.2 % formic acid in water, and 40 mL of 50 % acetonitrile in water, centrifuging at 4000 x g for 1 min each time. The three elutions were pooled in a low-binding tube, placed on dry ice until frozen, dried in a SpeedVac vacuum (Thermo Scientific), and proceeded with the LCMS analysis.
Protein groups identified with a single peptide or quantified in fewer than three replicates in at least 1 condition were filtered out. Protein group intensities were median normalized and missing values were imputed using a Gaussian distribution centered on the median with a downshift of 1.8 and width of 0.3 (relative to the standard deviation).

B1: GTPBP10 (protein, UniProt A4D1E9 1-387, looked up)
GTP-binding protein 10: MVHCSCVLFRKYGNFIDKLRLFTRGGSGGMGYPRLGGEGGKGGDVWVVAQNRMTLKQLKDRYPRKRFVAGVGANSKISALKGSKGKDCEIPVPVGISVTDENGKIIGELNKENDRILVAQGGLGGKLLTNFLPLKGQKRIIHLDLKLIADVGLVGFPNAGKSSLLSCVSHAKPAIADYAFTTLKPELGKIMYSDFKQISVADLPGLIEGAHMNKGMGHKFLKHIERTRQLLFVVDISGFQLSSHTQYRTAFETIILLTKELELYKEELQTKPALLAVNKMDLPDAQDKFHELMSQLQNPKDFLHLFEKNMIPERTVEFQHIIPISAVTGEGIEELKNCIRKSLDEQANQENDALHKKQLLNLWISDTMSSTEPPSKHAVTTSKMDII
As to B1, the log2_FC in the assay with FLAG-USP33 (setting [1]) turned out to be 2.53.

B2: IFT56 (protein, UniProt A0AVF1 1-554, looked up)
Intraflagellar transport …: MMLSRAKPAVGRGVQHTDKRKKKGRKIPKLEELLSKRDFTGAITLLEFKRHVGEEEEDTNLWIGYCAFHLGDYKRALEEYENATKEENCNSEVWVNLACTYFFLGMYKQAEAAGFKASKSRLQNRLLFHLAHKFNDEKKLMSFHQNLQDVTEDQLSLASIHYMRSHYQEAIDIYKRILLDNREYLALNVYVALCYYKLDYYDVSQEVLAVYLQQIPDSTIALNLKACNHFRLYNGRAAEAELKSLMDNASSSFEFAKELIRHNLVVFRGGEGALQVLPPLVDVIPEARLNLVIYYLRQDDVQEAYNLIKDLEPTTPQEYILKGVVNAALGQEMGSRDHMKIAQQFFQLVGGSASECDTIPGRQCMASCFFLLKQFDDVLIYLNSFKSYFYNDDIFNFNYAQAKAATGNTSEGEEAFLLIQSEKMKNDYIYLSWLARCYIMNKKPRLAWELYLKMETSGESFSLLQLIANDCYKMGQFYYSAKAFDVLERLDPNPEYWEGKRGACVGIFQMIIAGREPKETLREVLHLLRSTGNTQVEYMIRIMKKWAKENRVSI
Consider B2, for which the log2_FC in the assay with FLAG-USP33 (setting [2]) was found to be 3.226; in the assay with FLAG-USP33 (setting [1]) it was 2.888.

B3: BLTP3B (protein, UniProt A0JNW5 1-1464, looked up)
Bridge-like lipid transfer …: MAGIIKKQILKHLSRFTKNLSPDKINLSTLKGEGELKNLELDEEVLQNMLDLPTWLAINKVFCNKASIRIPWTKLKTHPICLSLDKVIMEMSTCEEPRSPNGPSPIATASGQSEYGFAEKVVEGISVSVNSIVIRIGAKAFNASFELSQLRIYSVNAHWEHGDLRFTRIQDPQRGEVLTFKEINWQMIRIEADATQSSHLEIMCAPVRLITNQSKIRVTLKRRLKDCNVIATKLVLILDDLLWVLTDSQLKAMVQYAKSLSEAIEKSTEQRKSMAPEPTQSSTVVASAQQVKTTQTSNAPDVNDAIVKLFNDFDVKETSHHLVISHLDLHICDDIHAKEKESNRRITGGAMQLSFTQLTIDYYPYHKAGDSCNHWMYFSDATKTKNGWANELLHEFECNVEMLKQAVKDHNVGSPPKSPTHASPQHTQTEKDYPLKGTCRTPSVLSQQSKAKLMSSSVVVRLADFNIYQVSTAEQCRSSPKSMICCNKKSLYLPQEMSAVYIEFTEYYYPDGKDFPIPSPNLYSQLNALQFTVDERSILWLNQFLLDLKQSLNQFMAVYKLNDNSKSDEHVDVRVDGLMLKFVIPSEVKSECHQDQPRAISIQSSEMIATNTRHCPNCRHSDLEALFQDFKDCDFFSKTYTSFPKSCDNFNLLHPIFQRHAHEQDTKMHEIYKGNITPQLNKNTLKTSAATDVWAVYFSQFWIDYEGMKSGKGRPISFVDSFPLSIWICQPTRYAESQKEPQTCNQVSLNTSQSESSDLAGRLKRKKLLKEYYSTESEPLTNGGQKPSSSDTFFRFSPSSSEADIHLLVHVHKHVSMQINHYQYLLLLFLHESLILLSENLRKDVEAVTGSPASQTSICIGILLRSAELALLLHPVDQANTLKSPVSESVSPVVPDYLPTENGDFLSSKRKQISRDINRIRSVTVNHMSDNRSMSVDLSHIPLKDPLLFKSASDTNLQKGISFMDYLSDKHLGKISEDESSGLVYKSGSGEIGSETSDKKDSFYTDSSSILNYREDSNILSFDSDGNQNILSSTLTSKGNETIESIFKAEDLLPEAASLSENLDISKEETPPVRTLKSQSSLSGKPKERCPPNLAPLCVSYKNMKRSSSQMSLDTISLDSMILEEQLLESDGSDSHMFLEKGNKKNSTTNYRGTAESVNAGANLQNYGETSPDAISTNSEGAQENHDDLMSVVVFKITGVNGEIDIRGEDTEICLQVNQVTPDQLGNISLRHYLCNRPVGSDQKAVIHSKSSPEISLRFESGPGAVIHSLLAEKNGFLQCHIENFSTEFLTSSLMNIQHFLEDETVATVMPMKIQVSNTKINLKDDSPRSSTVSLEPAPVTVHIDHLVVERSDDGSFHIRDSHMLNTGNDLKENVKSDSVLLTSGKYDLKKQRSVTQATQTSPGVPWPSQSANFPEFSFDFTREQLMEENESLKQELAKAKMALAEAHLEKDALLHHIKKMTVE
B3 gave a log2_FC in the assay on FLAG-USP33 (setting [3]) of 2.646.

B4: TMEM223 (protein, UniProt A0PJW6 1-202, looked up)
Transmembrane protein 223: MAAPWRRWPTGLLAVLRPLLTCRPLQGTTLQRDVLLFEHDRGRFFTILGLFCAGQGVFWASMAVAAVSRPPVPVQPLDAEVPNRGPFDLRSALWRYGLAVGCGAIGALVLGAGLLFSLRSVRSVVLRAGGQQVTLTTHAPFGLGAHFTVPLKQVSCMAHRGEVPAMLPLKVKGRRFYFLLDKTGHFPNTKLFDNTVGAYRSL
For the molecule B4, the log2_FC in the assay on FLAG-USP20 (setting [4]) is reported as 4.865; in the assay on FLAG-USP20 (setting [5]), 4.082; in the assay on FLAG-USP20 (setting [6]), 4.082; in the assay on FLAG-USP33 (setting [2]), 4.626; in the assay with FLAG-USP33 (setting [1]) it was 4.59; in the assay on FLAG-USP33 (setting [3]) it was 4.422. Moreover, the log2_FC in the assay on FLAG-USP33 (IP-MS, FLAG-USP33 vs EV, comparison USP33_wt/EV, Limma) is listed as 4.38; in the assay with FLAG-USP33 (Table S7c USP33 MS_and_motif, bait USP33), 4.38.

B5: BCLAF3 (protein, UniProt A2AJT9 1-711, looked up)
BCLAF1 and THRAP3 family …: MARSRSRSPRWKHRSLSPVPRNAEHYKQRHSHGHYGCEYRKDPKRPVAWRMDSEKHGQSKPRIPSRGNIYYQSYEHRSPSPNIRNSLENVYMYKPHRGYSPGRGDSNRRAQYMPKYSEGIPYKEHERNSYPQKVQGGHSPDDHRVRGSGKGGKPPQRSIADSFRFEGKWHEDELRHQRIQEEKYSQSTRRGSEDFETRSSFQKRYPEDRDFRKYGHTSKRPKDVERYESREPARNPKWKPEHSLPPYQEDTDQWNLGPQTYRHAEREHPETSSATKVSYDYRHKRPKLLDGDQDFSDGRTQKYCKEEDRKYSFQKGPLNRELDCFNTGRGRETQDGQVKEPFKPSKKDSIACTYSNKNDVDLRSSNDKWKEKIKKEGDCRKESNSSSNQLDKSQKLPDVKPSPINLRKKSLTVKVDVKKTVDTFRVASSYSTERQMSHDLVAVGRKSENFHPVFEHLDSTQNTENKPTGEFAQEIITIIHQVKANYFPSPGITLHERFSTMQDIHKADVNEIPLNSDPEIHRRIDMSLAELQSKQAVIYESEQTLIKIIDPNDLRHDIERRRKERLQNEDEHIFHIASAAERDDQNSSFSKVKNVHTDGFQKPTHFIKSNFRKCIEKPYMNYTTQRKDIITHKPFEVEGNHRNTRVRPFKSNFRGGRCQPNYKSGLVQKSLYIQAKYQRLRFTGPRGFITHKFRERLMRKKKEYTDVATGI
For B5, the log2_FC with FLAG-USP20 (setting [4]) came to 4.725; in the assay with FLAG-USP20 (setting [5]) it was 4.955; with FLAG-USP20 (setting [6]) it was 4.955; in the assay on FLAG-USP33 (setting [3]), 4.934.
